Data on 4 variants can be found in IntAct's records for PubMed 17024180.

B1: Tyrosine-protein kinase JAK2 (Mus musculus), Q62120 (parent)
chain: MGMACLTMTEMEATSTSPVHQNGDIPGSANSVKQIEPVLQVYLYHSLGQAEGEYLKFPSGEYVAEEICVAASKACGITPVYHNMFALMSETERIWYPPNHVFHIDESTRHDILYRIRFYFPHWYCSGSSRTYRYGVSRGAEAPLLDDFVMSYLFAQWRHDFVHGWIKVPVTHETQEECLGMAVLDMMRIAKEKDQTPLAVYNSVSYKTFLPKCVRAKIQDYHILTRKRIRYRFRRFIQQFSQCKATARNLKLKYLINLETLQSAFYTEQFEVKESARGPSGEEIFATIIITGNGGIQWSRGKHKESETLTEQDVQLYCDFPDIIDVSIKQANQECSNESRIVTVHKQDGKVLEIELSSLKEALSFVSLIDGYYRLTADAHHYLCKEVAPPAVLENIHSNCHGPISMDFAISKLKKAGNQTGLYVLRCSPKDFNKYFLTFAVERENVIEYKHCLITKNENGEYNLSGTKRNFSNLKDLLNCYQMETVRSDSIIFQFTKCCPPKPKDKSNLLVFRTNGISDVQISPTLQRHNNVNQMVFHKIRNEDLIFNESLGQGTFTKIFKGVRREVGDYGQLHKTEVLLKVLDKAHRNYSESFFEAASMMSQLSHKHLVLNYGVCVCGEENILVQEFVKFGSLDTYLKKNKNSINILWKLGVAKQLAWAMHFLEEKSLIHGNVCAKNILLIREEDRRTGNPPFIKLSDPGISITVLPKDILQERIPWVPPECIENPKNLNLATDKWSFGTTLWEICSGGDKPLSALDSQRKLQFYEDKHQLPAPKWTELANLINNCMDYEPDFRPAFRAVIRDLNSLFTPDYELLTENDMLPNMRIGALGFSGAFEDRDPTQFEERHLKFLQQLGKGNFGSVEMCRYDPLQDNTGEVVAVKKLQHSTEEHLRDFEREIEILKSLQHDNIVKYKGVCYSAGRRNLRLIMEYLPYGSLRDYLQKHKERIDHKKLLQYTSQICKGMEYLGTKRYIHRDLATRNILVENENRVKIGDFGLTKVLPQDKEYYKVKEPGESPIFWYAPESLTESKFSVASDVWSFGVVLYELFTYIEKSKSPPVEFMRMIGNDKQGQMIVFHLIELLKSNGRLPRPEGCPDEIYVIMTECWNNNVSQRPSFRDLSLRVDQIRDSIAA
partner: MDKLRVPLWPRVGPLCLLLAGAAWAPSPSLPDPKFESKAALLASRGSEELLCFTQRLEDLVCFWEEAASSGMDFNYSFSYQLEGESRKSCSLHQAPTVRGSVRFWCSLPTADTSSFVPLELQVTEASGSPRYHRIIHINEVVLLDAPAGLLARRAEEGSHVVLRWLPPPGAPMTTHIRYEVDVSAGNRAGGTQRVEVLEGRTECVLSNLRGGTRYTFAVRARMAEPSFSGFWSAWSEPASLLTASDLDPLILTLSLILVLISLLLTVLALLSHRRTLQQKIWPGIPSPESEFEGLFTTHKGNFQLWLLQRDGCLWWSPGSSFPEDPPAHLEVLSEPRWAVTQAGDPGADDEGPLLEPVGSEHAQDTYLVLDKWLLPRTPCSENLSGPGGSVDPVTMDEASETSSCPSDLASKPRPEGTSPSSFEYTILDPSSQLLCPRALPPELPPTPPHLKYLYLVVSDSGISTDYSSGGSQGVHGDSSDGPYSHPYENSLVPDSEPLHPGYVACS
B2: Tyrosine-protein kinase JAK2 (Mus musculus), Q62120 (parent)
chain: B1 chain
partner: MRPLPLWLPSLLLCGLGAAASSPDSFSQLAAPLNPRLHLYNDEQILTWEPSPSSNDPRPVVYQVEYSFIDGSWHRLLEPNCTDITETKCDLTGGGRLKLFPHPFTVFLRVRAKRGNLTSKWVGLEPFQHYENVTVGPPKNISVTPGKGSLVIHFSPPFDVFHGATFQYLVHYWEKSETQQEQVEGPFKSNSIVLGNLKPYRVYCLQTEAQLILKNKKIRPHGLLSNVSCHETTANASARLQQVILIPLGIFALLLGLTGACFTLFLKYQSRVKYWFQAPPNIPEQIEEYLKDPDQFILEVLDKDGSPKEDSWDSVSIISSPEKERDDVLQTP

In one assay the parent is B1. The settings on record: with epor_mouse Epor.
As to Y119E, the “effect of a mutation on the interaction” value is “disrupting interaction”.

In the case of Y1007F, the “effect of a mutation on the interaction” value is listed as “decreasing interaction”.

The next assay covers variants of B2. The note with it: with Ifngr2, Q63953.
On to Y119E, for which the “effect of a mutation on the interaction” value is given as “decreasing interaction”.

As to Y1007F, the “effect of a mutation on the interaction” value is “decreasing interaction”.
